Drawing on article PMC3166883, this text covers Kd for two substances.

What is called Kd is the constant that tells how readily two partners part at equilibrium.

Experiment [1] has as its target MART-1/Melan-A (anchor-modified decamer, modified at position 2) peptide on HLA-A*02:01 (human). The experiment is described as follows: SPR.
Experiment [2] concerns the target MART-1/Melan-A peptide on HLA-A*02:01 (human). The experiment is described as follows: SPR. (In SPR one partner is held on a chip, and binding of the other changes the refractive index at the surface.)

As for DMF5, the dissociation constant Kd stood at 6 µM in experiment [1] and 40 µM in experiment [2].
In turn, DMF4 had a Kd in experiment [1] of 29 µM.
